This note sets out measurements from patent US20240392003A1 (NUMAB THERAPEUTICS, published 2024).

Where only a bound is given, the exact number is not on record here.

For assay [1], the target named is T1, recombinant human CD3 epsilon extra-cellular domain protein (His-Tag, SinoBiological) (human, UniProt P07766 23-126).
T1 construct: extracellular domain; Bought; also called hCD3ε; human CD3ε; not shown: His tag
Nature of the assay: SPR; hCD3ε immobilized, two-state fit.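 Note: biacore T200 measurement with target covalently coupled to a CM5 chip, antibody constructs injected as analyte over a concentration series, constants derived in Biacore Evaluation software 3.2.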 For orientation: In SPR one partner is held on a chip, and binding of the other changes the refractive index at the surface.

Assay [2] concerns the target T2, recombinant human ROR1 protein (Fc-Tag, Acro Biosystems RO1-H5250) (human, UniProt Q01973 30-406).
T2 construct: Bought; also called hROR1; recombinant human ROR1 ECD; not shown: Fc tag
The assay is described as follows: SPR; hROR1-Fc immobilized.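 Note: biacore T200 SPR with ROR1 covalently coupled to a CM5 chip, analyte titration series, apparent rate and equilibrium constants fitted with a 1:1 Langmuir model.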

In assay [3] the target is T3, human ROR1 expressed on cells (human, UniProt Q01973 30-937).
T3 construct: whole, on cells; One molecule for cell-surface ROR1 on all cell lines; the cell line is named under assay; also called hROR1; plasma membrane human ROR1
The assay is described as follows: flow cytometry, MDA-MB-231 cells, 1 mg/ml hSA. (A flow cytometer gives signals particle by particle.)
Description: After incubation at 4° C. for 1 h in presence of 1 mg/mi of human serum albumin (hSA), plates were washed and incubated with specific detection antibodies.
The binding of anti-ROR1xhSAxCD3 scMATCH3 molecules to plasma membrane human ROR1 was assessed by flow cytometry.

The target of assay [4] is T3, human ROR1 expressed on cells. Nature of the assay: cell-based or functional assay.
Assay [5] deals with T1, recombinant human CD3 epsilon …. The assay is described as follows: SPR; hCD3ε immobilized, two-state fit (kd1).
The target is the same in assay [6]. The assay is described as follows: SPR; hCD3ε immobilized, two-state fit (ka1).

B1: PRO2508 (bispecific antibody)
chain: AFELTQSPSSLSASVGDRVTITCQASESINSRLAWYQQKPGQPPKLLIYDASDLTSGVPSRFSGSGSGTDFTLTISSLQPEDFATYYCQGYGGSSTTTFGCGTKLTVLGGGGGSEVQLVESGGGLVQPGGSLRLSCAASGFSLSSYDMSWVRQAPGKGLAWIGASYASGPTYYASWAKGRFTISRDNSKNTVYLQMNSLRAEDTATYFCARGGWTGTSHSNIWGQGTLVTVSSGGGGSGGGGSGGGGSGGGGSDIQMTQSPSSLSASVGDRVTITCQSSQSVFSNNYLAWFQQKPGQSPKRLIYSASTLASGVPSRFSGSGSGTDFTLTISSLQPEDFATYYCLGSYACSSADCYVFGTGTKVTVLGGGGGSEVQLVESGGGLVQPGGSLRLSCAASGFSLSSYAMNWVRQAPGKCLEWIGHINAGDIAYYATWAKGRFTISRDNSKNTVYLQMNSLRAEDTAVYFCARGAGGFSTGPFKLWGQGTLVTVSSGGGGSGGGGSDVQMTQSPSSLSASVGDRVTITCRASENIYSGLAWYQQKPGKPPKLLIYRASTLASGVSSRFSGSGSGTDFTLTISSLQPEDFATYYCQGGYYSSSSTYIAFGCGTKVTVLGGGGGSGGGGSGGGGSGGGGSQSQVVESGGGLVQPGGSLRLSCAVSGFDLSSYAVSWVRQAPGKCLEWIGIIYPRANTYYASWAKGRFTISKDNSKNTVYLQMNSLRAEDTAVYFCARDRYDSGAYLYTTYFNLWGQGTLVTVSS
notes: trispecific anti-ROR1 x hSA x CD3 scMATCH3, single chain; also called 19-04-A10-sc06 scDb-o/28-21-D09-sc04 scDb-i/55-38-D07-sc06-scFv
For the molecule B1, in assay [1], the dissociation constant (Kd) (as a rule, the constant that tells how readily two partners part at equilibrium) turned out to be 8.5 nM; the ka2 worked out at 0.0068 s⁻¹; the kd2 turned out to be 0.0074 s⁻¹. In assay [2], the Kd is not above 0.13 nM; the dissociation rate constant (koff) (as a rule, the first-order rate constant of dissociation) is less than 1e-05 s⁻¹; the kon (as a rule, the rate constant with which the complex forms) was 76000 M⁻¹ s⁻¹. Besides, in assay [3], the response was half-maximal at 18.7 nM (EC50) and the “Rel. maximum binding (MFIscMATCH3/MFIPRO2213)” value was 3. In assay [4], the “EC50 (nM) Cytotoxicity (MDA-MB-231)” value worked out at 1.7 nM. Further, the koff in assay [5] came out at 0.0062 s⁻¹. In addition, the kon in assay [6] was found to be 380000 M⁻¹ s⁻¹.

B2: PRO2509 (bispecific antibody)
chain: AFELTQSPSSLSASVGDRVTITCQASESINSRLAWYQQKPGQPPKLLIYDASDLTSGVPSRFSGSGSGTDFTLTISSLQPEDFATYYCQGYGGSSTTTFGCGTKLTVLGGGGGSEVQLVESGGGLVQPGGSLRLSCAASGFSLSSYDMSWVRQAPGKGLAWIGASYASGPTYYASWAKGRFTISRDNSKNTVYLQMNSLRAEDTATYFCARGGWTGTSHSNIWGQGTLVTVSSGGGGSGGGGSGGGGSGGGGSDIQMTQSPSSLSASVGDRVTITCQSSQSVFSNNYLAWFQQKPGQSPKRLIYSASTLASGVPSRFSGSGSGTDFTLTISSLQPEDFATYYCLGSYACSSADCYVFGTGTKVTVLGGGGGSEVQLVESGGGLVQPGGSLRLSCAASGFSLSSYAMNWVRQAPGKCLEWIGHINAGDIAYYATWAKGRFTISRDNSKNTVYLQMNSLRAEDTAVYFCARGAGGFSTGPFKLWGQGTLVTVSSGGGGSGGGGSAQQLTQSPSSLSASVGDRVTITCQASQNVWNNNYLSWFQQKPGKPPKLLIVTASTLASGVSSRFSGSGSGTDFTLTISSLQPEDFATYYCAGGFSGEIRAFGTGTKVTVLGGGGGSGGGGSGGGGSGGGGSQSQLVESGGGLVQPGGSLRLSCAVSGLSLSRNAMSWVRQAPGKGLEWIGIILTSGSTYYASWAKGRFTISKDNSKNTVYLQMNSLRAEDTAVYFCVRGIASSSLKSFWGQGTLVTVSS
notes: trispecific anti-ROR1 x hSA x CD3 scMATCH3, single chain; also called 19-04-A10-sc06 scDb-o/28-21-D09-sc04 scDb-i/55-39-G02-sc02-scFv
In the case of B2, in assay [1], the dissociation constant (Kd) turned out to be 2.1 nM, the ka2 came out at 0.00096 s⁻¹ and the kd2 turned out to be 0.0016 s⁻¹. Also, in assay [2], the dissociation constant Kd was found to be 0.36 nM, the koff turned out to be 0.00047 s⁻¹ and the on-rate (kon) is 1.3e+06 M⁻¹ s⁻¹. In addition, in assay [3], the midpoint of the response, the EC50, lay at 1.12 nM and the “Rel. maximum binding (MFIscMATCH3/MFIPRO2213)” value turned out to be 2.57. Besides, the “EC50 (nM) Cytotoxicity (MDA-MB-231)” value in assay [4] is 0.31 nM. Further, the koff in assay [5] came out at 0.0034 s⁻¹. In addition, the kon in assay [6] was 1e+06 M⁻¹ s⁻¹.
